Drawing on doi:10.1101/559005, this text covers Kd for three substances.

Test [1] addresses ScSth1p Ser1276Glu mutant bromodomain (S. cerevisiae) (UniProt P32597). The test can be described thus: ITC.
Test [2] has as its target ScSth1p bromodomain (residues 1250-1359), wild type (S. cerevisiae) (UniProt P32597). The test can be described thus: ITC.

For orientation: Kd means the concentration at which binding is half-saturated. High values mean lower affinity, low ones higher affinity.

For the substance H3K14ac peptide, the Kd in test [1] was determined as 3 µM; in test [2] it was 18 µM.
Regarding H4K20ac peptide, the Kd in test [1] came out at 31 µM; in test [2], 48 µM.
Take HsH2AK15ac peptide: the Kd in test [2] worked out at 44 µM.
